In patent US20200024352A1 (Eli Lilly, published 2020):
Each block holds one binder with its values, some of them ahead of it.

Assays:
[1] = target: T1, human Tim-3-Fc (R&D Systems) (human, UniProt Q8TDQ0 22-130); assay: ELISA, plate-coated human Tim-3-Fc
T1 construct: Bought reagent; Biotinylated in the phosphatidylserine assay, ruthenylated (sulfo-tag) in the galectin-9 assay, plain and plate-coated in the ELISA and the CEACAM1 assay; also called hTIM-3-Fc; hTIM-3-Fc Biotin; not shown: Fc part of the bought fusion protein
T1 sequence: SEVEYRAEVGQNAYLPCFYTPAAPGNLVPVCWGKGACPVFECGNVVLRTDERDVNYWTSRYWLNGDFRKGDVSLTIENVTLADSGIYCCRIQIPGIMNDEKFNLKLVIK

[2] = target: T2, human Tim-3, full-length, on cells (human, UniProt Q8TDQ0 22-301); assay: flow cytometry, A488-labelled antibody on Tim-3 DO11.10 cells
T2 construct: whole, on cells; also called cell surface Tim-3
T2 sequence (looked up): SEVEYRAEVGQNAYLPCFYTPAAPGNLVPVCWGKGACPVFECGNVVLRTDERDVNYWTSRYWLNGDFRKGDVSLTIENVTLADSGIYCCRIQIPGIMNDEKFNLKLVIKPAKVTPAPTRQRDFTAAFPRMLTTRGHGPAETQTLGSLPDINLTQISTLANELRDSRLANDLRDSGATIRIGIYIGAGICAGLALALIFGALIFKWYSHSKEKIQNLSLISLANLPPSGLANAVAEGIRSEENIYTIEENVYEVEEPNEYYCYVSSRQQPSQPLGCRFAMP

[3] = target: T1, human Tim-3-Fc (R&D Systems); assay: MSD blocking assay, galectin-9-biotin on streptavidin plate as competitor, ruthenylated Tim-3-Fc
[4] = target: T1, human Tim-3-Fc (R&D Systems); assay: flow cytometry, block of hTIM-3-Fc Biotin binding to phosphatidylserine on camptothecin-treated DO11.10 cells
[5] = target: T3, human Tim-3-IgV-Fc single arm antigen (SAG) (human); assay: SPR, Biacore T100, antibody captured on Human Fab Binder, Tim-3 SAG as analyte, 1:1 Langmuir with mass transport
T3 construct: the SAG construct itself is not described further; also called Tim-3 SAG; not shown: Fc part of the antigen arm, any linker to it, and the second antigen-free Fc arm

[6] = target: T4, hTim-3-IgV-FLAG (human, UniProt Q8TDQ0 22-130, glycosylation at Asn99 (density seen in the crystal structure)); assay: SPR, Biacore T200, Fab captured, hTim-3-IgV-FLAG as analyte, 25 C, 1:1 binding
T4 construct: Purified from 293HEK supernatant on anti-FLAG resin; also called hTim-3-FLAG; not shown: FLAG tag
T4 sequence: T1 sequence

[7] = target: T5, human PD-L1-Fc fusion protein (human, UniProt Q9NZQ7 19-239); assay: ELISA, plate-coated human PD-L1-Fc
T5 construct: also called human PD-L1-Fc (R&D Systems); biotinylated PD-L1-Fc fusion protein; not shown: Fc part

[8] = target: T5, human PD-L1-Fc fusion protein; assay: blocking ELISA, B7-1-Fc on plate as competitor, biotinylated PD-L1-Fc
[9] = target: T5, human PD-L1-Fc fusion protein; assay: blocking ELISA, PD-1-Fc on plate as competitor, biotinylated PD-L1-Fc
[10] = target: T6, cell surface PD-L1 on MDA-MB231 cells (human, UniProt Q9NZQ7 19-290); assay: flow cytometry, Antibody B-biotin on MDA-MB231 cells, streptavidin-PE
T6 construct: Endogenous PD-L1 of a PD-L1-positive human breast adenocarcinoma cell line; also called cell surface expressed human PD-L1

[11] = target: T5, human PD-L1-Fc fusion protein; assay: SPR, Biacore, Antibody B immobilized, PD-L1-Fc as analyte, 37 C, 1:1 model
[12] = target: T7, cynomolgus monkey PD-L1-Fc fusion protein (cynomolgus monkey, UniProt G7PSE7 19-238); assay: SPR, Biacore, Antibody B immobilized, cyno PD-L1-Fc as analyte, 37 C, 1:1 model
T7 construct: also called Cyno PD-L1; not shown: Fc part
T7 sequence (G7PSE7 entry or part of it): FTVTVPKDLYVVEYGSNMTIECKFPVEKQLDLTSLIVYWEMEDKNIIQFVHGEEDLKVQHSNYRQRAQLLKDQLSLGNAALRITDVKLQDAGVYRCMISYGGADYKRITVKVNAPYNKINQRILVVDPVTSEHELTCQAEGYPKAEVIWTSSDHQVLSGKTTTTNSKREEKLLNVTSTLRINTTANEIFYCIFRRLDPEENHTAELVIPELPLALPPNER

T5 sequence (Q9NZQ7 19-239 limits assumed): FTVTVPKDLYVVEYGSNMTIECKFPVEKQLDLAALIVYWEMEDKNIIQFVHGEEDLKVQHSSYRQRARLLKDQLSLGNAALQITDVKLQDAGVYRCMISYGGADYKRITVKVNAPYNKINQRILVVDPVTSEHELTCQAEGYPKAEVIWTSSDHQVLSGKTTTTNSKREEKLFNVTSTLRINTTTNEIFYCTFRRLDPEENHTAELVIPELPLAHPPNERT
T6 sequence (Q9NZQ7 19-290 limits assumed): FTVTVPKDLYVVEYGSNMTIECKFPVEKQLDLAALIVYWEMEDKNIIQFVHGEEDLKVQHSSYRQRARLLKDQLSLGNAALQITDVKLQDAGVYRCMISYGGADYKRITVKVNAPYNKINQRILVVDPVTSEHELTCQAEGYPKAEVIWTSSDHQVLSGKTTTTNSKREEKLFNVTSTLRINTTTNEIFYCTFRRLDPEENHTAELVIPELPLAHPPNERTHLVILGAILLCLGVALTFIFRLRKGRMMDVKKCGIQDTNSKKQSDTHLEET

EC50 [1]: 0.0207 nM | EC50 [2]: 0.09 nM | IC50 [3]: 5.6 nM | IC50 [4]: 0.32 nM | Kd [5]: 0.398 nM | koff [5]: 0.000927 s⁻¹ | kon [5]: 2.33e+06 M⁻¹ s⁻¹
B1: Antibody A (anti-Tim-3 Antibody) (antibody, human IgG1, kappa, V domains shown)
VH: EVQLLESGGGLVQPGGSLRLSCAASGFTFSSYYMSWVRQAPGKGLEWVSAISGSGGSTYYADSVKGRFTISRDNSKNTLYLQMNSLRAEDTAVYYCARYARTAFDLWGQGTLVTVSS
VL: DIVMTQSPSSLSASVGDGVTITCQASQDIYNYLNWYQQKPGKAPKLLIYAASSLQSGVPSRFSGSGSGTDFTLTISSLQPEDFATYYCQQANSFPPTFGQGTKLEIKR
notes: Full IgG; also called anti-human Tim-3 antibody

Kd [6]: 7.92 nM | koff [6]: 0.00286 s⁻¹ | kon [6]: 362000 M⁻¹ s⁻¹
B2: Antibody A-Fab (Fab, V domains shown)
VH: B1 VH
VL: B1 VL
notes: Made by clipping Antibody A with immobilized papain; also called Fab for Antibody A

EC50 [7]: 0.11 nM | IC50 [8]: 2.4 nM | IC50 [9]: 0.95 nM | EC50 [10]: 0.14 nM | Kd [11]: 0.082 nM | koff [11]: 0.000114 s⁻¹ | kon [11]: 1.4e+06 M⁻¹ s⁻¹ | Kd [12]: 0.122 nM | koff [12]: 0.000184 s⁻¹ | kon [12]: 1.51e+06 M⁻¹ s⁻¹
B3: Antibody B (Anti-PD-L1 Antibody) (antibody, human IgG1, lambda, V domains shown)
VH: QVQLVQSGAEVKKPGSSVKVSCKASGGTFSSYAISWVRQAPGQGLEWMGGIIPIFGTANYAQKFQGRVTITADKSTSTAYMELSSLRSEDTAVYYCARSPDYSPYYYYGMDVWGQGTTVTVSS
VL: QSVLTQPPSASGTPGQRVTISCSGSSSNIGSNTVNWYQQLPGTAPKLLIYGNSNRPSGVPDRFSGSKSGTSASLAISGLQSEDEADYYCQSYDSSLSGSVFGGGIKLTVLG
notes: Full IgG; also called Lilly PD-L1 antibody Antibody B; Antibody B-biotin
